Measured values: publication PMC7480105, “Wbox2: A clathrin terminal domain–derived peptide inhibitor of clathrin-mediated endocytosis” (The Journal of Cell Biology, 2020)
No end group written: not given here.

B1: TDD: clathrin heavy chain fragment (residues 1–1,074): N-terminal domain plus distal leg, overexpressed by Tet-off adenovirus (protein)
chain: MAQILPIRFQEHLQLQNLGINPANIGFSTLTMESDKFICIREKVGEQAQVVIIDMNDPSNPIRRPISADSAIMNPASKVIALKAGKTLQIFNIEMKSKMKAHTMTDDVTFWKWISLNTVALVTDNAVYHWSMEGESQPVKMFDRHSSLAGCQIINYRTDAKQKWLLLTGISAQQNRVVGAMQLYSVDRKVSQPIEGHAASFAQFKMEGNAEESTLFCFAVRGQAGGKLHIIEVGTPPTGNQPFPKKAVDVFFPPEAQNDFPVAMQISEKHDVVFLITKYGYIHLYDLETGTCIYMNRISGETIFVTAPHEATAGIIGVNRKGQVLSVCVEEENIIPYITNVLQNPDLALRMAVRNNLAGAEELFARKFNALFAQGNYSEAAKVAANAPKGILRTPDTIRRFQSVPAQPGQTSPLLQYFGILLDQGQLNKYESLELCRPVLQQGRKQLLEKWLKEDKLECSEELGDLVKSVDPTLALSVYLRANVPNKVIQCFAETGQVQKIVLYAKKVGYTPDWIFLLRNVMRISPDQGQQFAQMLVQDEEPLADITQIVDVFMEYNLIQQCTAFLLDALKNNRPSEGPLQTRLLEMNLMHAPQVADAILGNQMFTHYDRAHIAQLCEKAGLLQRALEHFTDLYDIKRAVVHTHLLNPEWLVNYFGSLSVEDSLECLRAMLSANIRQNLQICVQVASKYHEQLSTQSLIELFESFKSFEGLFYFLGSIVNFSQDPDVHFKYIQAACKTGQIKEVERICRESNCYDPERVKNFLKEAKLTDQLPLIIVCDRFDFVHDLVLYLYRNNLQKYIEIYVQKVNPSRLPVVIGGLLDVDCSEDVIKNLILVVRGQFSTDELVAEVEKRNRLKLLLPWLEARIHEGCEEPATHNALAKIYIDSNNNPERFLRENPYYDSRVVGKYCEKRDPHLACVAYERGQCDLELINVCNENSLFKSLSRYLVRRKDPELWGSVLLESNPYRRPLIDQVVQTALSETQDPEEVSVTVKAFMTADLPNELIELLEKIVLDNSVFSEHRNLQNLLILTAIKADRTRVMEYINRLDNYDAPDIANIAISNELFEEAFAIFRK
modifications: left off: HA, N-terminal, kept
notes: clathrin heavy chain fragment (residues 1–1,074): N-terminal domain plus distal leg, overexpressed by Tet-off adenovirus
B2: TD: clathrin heavy chain N-terminal domain, generated by mutating T495 to a stop codon in TDD (protein, UniProt Q00610 1-494, looked up, fragment)
chain: MAQILPIRFQEHLQLQNLGINPANIGFSTLTMESDKFICIREKVGEQAQVVIIDMNDPSNPIRRPISADSAIMNPASKVIALKAGKTLQIFNIEMKSKMKAHTMTDDVTFWKWISLNTVALVTDNAVYHWSMEGESQPVKMFDRHSSLAGCQIINYRTDAKQKWLLLTGISAQQNRVVGAMQLYSVDRKVSQPIEGHAASFAQFKMEGNAEESTLFCFAVRGQAGGKLHIIEVGTPPTGNQPFPKKAVDVFFPPEAQNDFPVAMQISEKHDVVFLITKYGYIHLYDLETGTCIYMNRISGETIFVTAPHEATAGIIGVNRKGQVLSVCVEEENIIPYITNVLQNPDLALRMAVRNNLAGAEELFARKFNALFAQGNYSEAAKVAANAPKGILRTPDTIRRFQSVPAQPGQTSPLLQYFGILLDQGQLNKYESLELCRPVLQQGRKQLLEKWLKEDKLECSEELGDLVKSVDPTLALSVYLRANVPNKVIQCFAE
modifications: HA tag
notes: clathrin heavy chain N-terminal domain, generated by mutating T495 to a stop codon in TDD

Experiments:
Type in all cases: cell-based
[1] = tested on: TfnR uptake via CME in ARPE/HPV cells; experiment: TfnR uptake (in-cell ELISA) after peptide preincubation; conditions: 60-min preincubation with peptide at 37°C, concentration curves, n = 4 replicates (Fig. 7 F), read-out: IC50 for inhibition of TfnR uptake
Method: Peptides encoding the TAT sequence (YGRKKRRQRRR) followed by 10 amino acid sequences covering the four reported binding sites on the clathrin terminal domain (Fig. 7 A) were synthesized by GenScript (Piscataway, NJ) with >95% purity. Peptides were dissolved in dH2O and further diluted in PBS4+ (1× PBS buffer plus 0.2% BSA, 1 mM CaCl2, 1 mM MgCl2, and 5 mM D-glucose) or cell culture medium (for imaging) when applied to cells. Peptide solutions were stored at −20°C.
Internalization of TfnR, CD44, CD59, and Biotin-Tfn was quantified by in-cell ELISA following established protocols ([Conner and Schmid, 2003]; [Srinivasan et al., 2018]). Cells were seeded in 96-well plates (Costar) at 60–70% confluence and grown overnight. Before the assay, cells were starved for 30 min in PBS4+ at 37°C or treated with peptides in PBS4+ at 37°C for the indicated times. After starvation, cells were moved to 4°C, and culture medium was replaced with cold PBS4+ containing 5 µg/ml HTR-D65 (anti-TfnR mAb; [Schmid and Smythe, 1991]), anti-human CD44 or anti-human CD59 (BD PharMingen) or 5 µg/ml Biotin-Tfn (Sigma-Aldrich). For single-round assays, the above reagents were kept with cells for 20 min at 4°C and then washed out before uptake assay. For multiround assays, the above reagents were kept with cells throughout the uptake process. In parallel, some cells were kept at 4°C for the measurement of surface-bound ligands and blank controls, and some were incubated in a 37°C water bath for the indicated times. Acid wash (0.2 M acetic acid and 0.2 M NaCl, pH 2.3) was used to remove surface-bound antibodies, followed by washing with cold PBS. All were fixed with 4% PFA (Electron Microscopy Sciences) in PBS for 30 min at 37°C. 0.1% Triton X-100 was added for 6.5 min to permeabilize cells, followed by addition of blocking buffer. HTR-D65–, CD44-, and CD59-treated cells were blocked with Q-PBS (PBS, 2% BSA, 0.1% lysine, and 0.01% saponin, pH 7.4), and Biotin-Tfn–treated cells were blocked with 2% casein. Surface-bound and internalized HTR-D65, CD44, and CD59 were probed with goat anti-mouse antibody conjugated with HRP (Sigma-Aldrich), and Biotin-Tfn was probed with Streptavidin-POD conjugate (Sigma-Aldrich). Color was developed using o-phenylenediamine dihydrochloride (OPD) solution (Sigma-Aldrich), and absorbance was read at 490 nm (Biotek Synergy H1 Hybrid Reader). Cell number variation among wells was accounted for by bicinchoninic acid assay reading at 562 nm.

[2] = tested on: TfnR uptake in ARPE cells; experiment: TfnR uptake with TDD overexpression (Tet-off adenovirus); conditions: maximum TDD expression, adenovirus-infected ARPE cells, n = 4 replicates (Fig. 2 C)
Method: TDD, TD, and tTA adenoviruses were applied to cells directly in culture medium. Pilot experiments were conducted to optimize the volumes of each virus preparation need for uniform infection (Fig. S1, A and B). Experiments were conducted after 12–18 h, allowing for adequate viral infection and protein expression. Protein expression could be regulated by adjusting Tet concentration. All experiments were performed in the absence of Tet, allowing for maximum protein expression, except for Fig. 1, A–C.
(§1) Internalization of TfnR, CD44, CD59, and Biotin-Tfn was quantified by in-cell ELISA following established protocols ([Conner and Schmid, 2003]; [Srinivasan et al., 2018]). Cells were seeded in 96-well plates (Costar) at 60–70% confluence and grown overnight. Before the assay, cells were starved for 30 min in PBS4+ at 37°C or treated with peptides in PBS4+ at 37°C for the indicated times. After starvation, cells were moved to 4°C, and culture medium was replaced with cold PBS4+ containing 5 µg/ml HTR-D65 (anti-TfnR mAb; [Schmid and Smythe, 1991]), anti-human CD44 or anti-human CD59 (BD PharMingen) or 5 µg/ml Biotin-Tfn (Sigma-Aldrich). […] Color was developed using o-phenylenediamine dihydrochloride (OPD) solution (Sigma-Aldrich), and absorbance was read at 490 nm (Biotek Synergy H1 Hybrid Reader). Cell number variation among wells was accounted for by bicinchoninic acid assay reading at 562 nm.

Tfn recycling = experiment: Biotin-Tfn recycling assay; conditions: TDD expression (0 ng/ml Tet), ARPE/HPV cells, 10- or 30-min pulse (Fig. 2 D)
Method: Biotin-Tfn recycling was conducted according to previous protocols ([Chen et al., 2017]). Cells were cultured in biotin-free medium for 48 h, seeded in 96-well plates (Costar) at 60–70% confluence, and grown overnight. Before assay, cells were starved for 45 min in PBS4+ at 37°C or treated with peptides in PBS4+ at 37°C for the indicated times. After starvation, cells were supplied with 100 µl of 5 µg/ml Biotin-Tfn in PBS4+ for 10 or 30 min to load Biotin-Tfn into cells. When loading was complete, cells were cooled down to 4°C and washed with PBS4+ to remove extra Biotin-Tfn. Some cells were kept at 4°C as loading controls. The remaining cells were first treated with avidin and biocytin to mask the surface-bound Biotin-Tfn, and then incubated at 37°C for the indicated times. All the cells were then acid washed and fixed with 4% PFA as above. Blocking steps were the same as for the Biotin-Tfn uptake assay. Data were expressed as percentage of total intracellular ligand remaining relative to the initial load.

[3] = tested on: fluid phase uptake of HRP in ARPE/HPV cells; experiment: Fluid-phase uptake of HRP; conditions: TDD expression (0 ng/ml Tet), ARPE/HPV cells (Fig. 2 E)
Method: Fluid-phase uptake assays were conducted using HRP (Sigma-Aldrich) as the readout. Cells were seeded in 96-well plates (Costar) at 60–70% confluence and grown overnight. Before assay, cell culture medium was changed to PBS4+ and cooled down to 4°C. Ice-cold HRP solution (1 mg/ml) was added to cells and moved to a 37°C water bath for 30 min. In parallel, some cells were kept at 4°C as blank control. All the cells were acid washed (0.2 M acetic acid and 0.2 M NaCl, pH 2.3) and lysed with ELISA blocking buffer (1% Triton X-100, 0.1% SDS, 0.2% BSA, 50 mM NaCl, and 1 mM Tris, pH 7.4) for 1 h at 4°C. Color was developed using OPD solution (Sigma-Aldrich), and absorbance was read at 490 nm (Biotek Synergy H1 Hybrid Reader).

[4] = tested on: CD44 uptake in ARPE/HPV cells; experiment: CD44 uptake (clathrin-independent endocytosis marker); conditions: TDD expression (0 ng/ml Tet), ARPE/HPV cells (Fig. 2 F)
Method: as §1, with “(Sigma-Aldrich). For single-round assays, the above reagents were kept with cells for 20 min at 4°C and then washed out before uptake assay. For multiround assays, the above reagents were kept with cells throughout the uptake process. In parallel, some cells were kept at 4°C for the measurement of surface-bound ligands and blank controls, and some were incubated in a 37°C water bath for the indicated times.” for “(Sigma-Aldrich).”

[5] = tested on: CD59 uptake in ARPE/HPV cells; experiment: CD59 uptake (clathrin-independent endocytosis marker); conditions: TDD expression (0 ng/ml Tet), ARPE/HPV cells (Fig. 2 F)
Method: as §1, with “(Sigma-Aldrich). For single-round assays, the above reagents were kept with cells for 20 min at 4°C and then washed out before uptake assay. For multiround assays, the above reagents were kept with cells throughout the uptake process. In parallel, some cells were kept at 4°C for the measurement of surface-bound ligands and blank controls, and some were incubated in a 37°C water bath for the indicated times.” for “(Sigma-Aldrich).”

[6] = tested on: association of AP2 with the membrane pellet, ARPE cells; experiment: Subcellular fractionation, AP2 in membrane pellet; conditions: cells with TDD overexpression, n = 3; control cells 59 ± 14% (Fig. 5 E)
Method: Confluent ARPE or ARPE/HPV cells in a 10-cm dish were detached with 3 ml of 50 mM EDTA at 37°C for 10 min. Extra EDTA after detachment was neutralized with 0.2 ml of 1 M MgCl2. Cells were then spun down at 500 g for 3 min and washed with cold PBS. After another spin to remove PBS, cells were resuspended in 0.5 ml ice-cold lysis buffer (25 mM Hepes, 250 mM sucrose, 1 mM MgCl2, and 2 mM EGTA, pH 7.4). Cells were then lysed by five rounds of freeze–thaw cycle (rapid freezing in liquid nitrogen and slow thawing in room temperature water bath, followed by brief vortex and 10-s sonication). Intact cells and nuclei were removed by centrifugation for 2 min at 500 g. 0.1 ml of lysed sample was kept as total control, and the rest (0.4 ml) underwent ultracentrifugation at 4°C for 30 min at 110,000 g to separate membranes (pellet) from cytosol (supernatant). Supernatant was transferred to another low binding Eppendorf, and the pellet was resuspended with the same volume of lysis buffer (0.4 ml). Total, pellet, and supernatant were heat denatured in 1× sample buffer and probed by Western blotting.

ARPE/HPV eGFP-CLCa cells = experiment: TIRFM CCP dynamics with TDD/TD overexpression; conditions: TIRFM and cmeAnalysis (Fig. 3 C, Fig. 4 C)
Method: Cells were seeded on a gelatin-coated 22 × 22–mm cover glass (Corning; 2850-22) overnight and moved to fresh cell culture medium 30 min before being mounted on a 25 × 75–mm slide (Thermo Fisher Scientific; 3050). Imaging was conducted with a 60×, 1.49-NA Apo TIRF objective (Nikon) mounted on a Ti-Eclipse inverted microscope. Perfect focus was used during time-lapse imaging. TIRF penetration depth was ∼80 nm. Videos were acquired for 7.5 min at the rate of 1 frame/s for all live-cell imaging. For dual-color imaging, two sequential images of primary and secondary channel were taken within 1 s, and the video length was the same as single-channel imaging. Published cmeAnalysis software was used for CCP detection, tracking, and quantification ([Aguet et al., 2013]; [Jaqaman et al., 2008]; [Loerke et al., 2011]).

Molecule	IC50 [1] [µM]	inhibition of endocytic efficiency of TfnR [2] [%]	recycling of Tfn (Tfn recycling)	fluid phase uptake (HRP) [3]	CD44 uptake (CIE) [4]	CD59 uptake (CIE) [5]	association of AP2 with the membrane pellet [6] [%]	CCP initiation (ARPE/HPV eGFP-CLCa cells)
YGRKKRRQRRRKAGKTLQIFN [Cbox1]	~60							
B1		80	not significantly perturbed	not significantly inhibited	not significantly inhibited	not significantly inhibited	76 ± 14	dramatically decreased
B2								sufficient to suppress
